Experimental data reported in IntAct's records for PubMed 35512704.

B1: Mothers against decapentaplegic homolog 4 (Homo sapiens), Q13485 (parent)
chain: MDNMSITNTPTSNDACLSIVHSLMCHRQGGESETFAKRAIESLVKKLKEKKDELDSLITAITTNGAHPSKCVTIQRTLDGRLQVAGRKGFPHVIYARLWRWPDLHKNELKHVKYCQYAFDLKCDSVCVNPYHYERVVSPGIDLSGLTLQSNAPSSMMVKDEYVHDFEGQPSLSTEGHSIQTIQHPPSNRASTETYSTPALLAPSESNATSTANFPNIPVASTSQPASILGGSHSEGLLQIASGPQPGQQQNGFTGQPATYHHNSTTTWTGSRTAPYTPNLPHHQNGHLQHHPPMPPHPGHYWPVHNELAFQPPISNHPAPEYWCSIAYFEMDVQVGETFKVPSSCPIVTVDGYVDPSGGDRFCLGQLSNVHRTEAIERARLHIGKGVQLECKGEGDVWVRCLSDHAVFVQSYYLDREAGRAPGDAVHKIYPSAYIKVFDLRQCHRQMQQQAATAQAAAAAQAAAVAGNIPGPGSVGGIAPAISLSAAAGIGVDDLRRLCILRMSFVKGWGPDYPRQSIKETPCWIEIHLHRALQLLDEVLHTMPIADPQPLD

Variants of: B1
Details: with vgfr2_human KDR
With G386D the “effect of a mutation on the interaction” value was “with no effect”.

Variants of: B1
Details: with keap1_human KEAP1, Q14145
G386D was tested, and the “effect of a mutation on the interaction” value was “with no effect”.

Variants of: B1
Details: with klf4_human KLF4, O43474
For G386D, the “effect of a mutation on the interaction” value was “with no effect”.

Variants of: B1
Details: with lims1_human LIMS1, P48059
With G386D the “effect of a mutation on the interaction” value was “with no effect”.

Variants of: B1
Details: with maga6_human MAGEA6, P43360
In the case of G386D, the “effect of a mutation on the interaction” value is reported as “with no effect”.

Variants of: B1
Details: with mp2k7_human MAP2K7, O14733
mp2k7_human MAP2K7, O14733, sequence (O14733 whole entry): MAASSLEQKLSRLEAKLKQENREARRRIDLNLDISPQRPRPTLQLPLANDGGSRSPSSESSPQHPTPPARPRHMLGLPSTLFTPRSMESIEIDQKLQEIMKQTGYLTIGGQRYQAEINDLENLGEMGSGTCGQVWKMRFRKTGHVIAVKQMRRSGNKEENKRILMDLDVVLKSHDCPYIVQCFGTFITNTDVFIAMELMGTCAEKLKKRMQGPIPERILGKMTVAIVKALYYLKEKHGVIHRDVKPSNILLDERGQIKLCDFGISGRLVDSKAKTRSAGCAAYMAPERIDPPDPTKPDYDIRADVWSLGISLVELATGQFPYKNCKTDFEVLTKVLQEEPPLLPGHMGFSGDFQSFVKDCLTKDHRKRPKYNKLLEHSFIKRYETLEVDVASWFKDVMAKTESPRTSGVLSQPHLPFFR
With G386D the “effect of a mutation on the interaction” value was “with no effect”.

Variants of: B1
Details: with m3k1_human MAP3K1, Q13233
For G386D, the “effect of a mutation on the interaction” value was “with no effect”.

Variants of: B1
Details: with m3k5_human MAP3K5, Q99683
With G386D the “effect of a mutation on the interaction” value was “with no effect”.

Variants of: B1
Details: with mk10_human MAPK10, P53779
With G386D the “effect of a mutation on the interaction” value was “with no effect”.

Variants of: B1
Details: with mk14_human MAPK14, Q16539
With G386D the “effect of a mutation on the interaction” value was “with no effect”.

Variants of: B1
Details: with mk03_human MAPK3, P27361
mk03_human MAPK3, P27361, sequence (P27361 whole entry): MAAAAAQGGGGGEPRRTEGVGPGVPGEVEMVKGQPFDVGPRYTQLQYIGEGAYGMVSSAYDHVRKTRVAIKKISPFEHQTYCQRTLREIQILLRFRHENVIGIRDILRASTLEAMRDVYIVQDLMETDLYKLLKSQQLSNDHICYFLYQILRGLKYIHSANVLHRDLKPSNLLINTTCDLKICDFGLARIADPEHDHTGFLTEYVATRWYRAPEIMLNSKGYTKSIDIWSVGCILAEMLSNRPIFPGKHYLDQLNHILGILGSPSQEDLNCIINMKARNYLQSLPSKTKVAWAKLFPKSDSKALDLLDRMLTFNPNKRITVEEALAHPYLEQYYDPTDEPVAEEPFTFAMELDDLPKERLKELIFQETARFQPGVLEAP
For G386D, the “effect of a mutation on the interaction” value was “with no effect”.

Variants of: B1
Details: with mk04_human MAPK4, P31152
mk04_human MAPK4, P31152, sequence (P31152 whole entry): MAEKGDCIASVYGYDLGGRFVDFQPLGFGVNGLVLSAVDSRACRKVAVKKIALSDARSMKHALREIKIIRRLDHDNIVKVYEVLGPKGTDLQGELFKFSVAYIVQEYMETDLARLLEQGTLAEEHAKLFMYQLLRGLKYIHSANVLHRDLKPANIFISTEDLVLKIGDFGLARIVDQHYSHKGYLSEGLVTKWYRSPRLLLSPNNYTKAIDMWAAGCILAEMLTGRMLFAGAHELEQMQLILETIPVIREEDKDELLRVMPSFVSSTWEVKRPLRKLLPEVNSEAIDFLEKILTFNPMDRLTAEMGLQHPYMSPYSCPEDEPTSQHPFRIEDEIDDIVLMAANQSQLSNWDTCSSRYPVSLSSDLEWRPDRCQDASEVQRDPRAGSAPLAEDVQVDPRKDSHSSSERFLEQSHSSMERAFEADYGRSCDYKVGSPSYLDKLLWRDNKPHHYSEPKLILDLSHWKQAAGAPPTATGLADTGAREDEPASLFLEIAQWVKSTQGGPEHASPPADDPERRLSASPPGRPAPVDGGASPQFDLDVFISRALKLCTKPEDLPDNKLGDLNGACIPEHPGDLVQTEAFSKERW
In the case of G386D, the “effect of a mutation on the interaction” value is reported as “with no effect”.

Variants of: B1
Details: with mk06_human MAPK6, Q16659
With G386D the “effect of a mutation on the interaction” value was “with no effect”.

Variants of: B1
Details: with mk07_human MAPK7, Q13164
mk07_human MAPK7, Q13164, sequence (Q13164 whole entry, looked up): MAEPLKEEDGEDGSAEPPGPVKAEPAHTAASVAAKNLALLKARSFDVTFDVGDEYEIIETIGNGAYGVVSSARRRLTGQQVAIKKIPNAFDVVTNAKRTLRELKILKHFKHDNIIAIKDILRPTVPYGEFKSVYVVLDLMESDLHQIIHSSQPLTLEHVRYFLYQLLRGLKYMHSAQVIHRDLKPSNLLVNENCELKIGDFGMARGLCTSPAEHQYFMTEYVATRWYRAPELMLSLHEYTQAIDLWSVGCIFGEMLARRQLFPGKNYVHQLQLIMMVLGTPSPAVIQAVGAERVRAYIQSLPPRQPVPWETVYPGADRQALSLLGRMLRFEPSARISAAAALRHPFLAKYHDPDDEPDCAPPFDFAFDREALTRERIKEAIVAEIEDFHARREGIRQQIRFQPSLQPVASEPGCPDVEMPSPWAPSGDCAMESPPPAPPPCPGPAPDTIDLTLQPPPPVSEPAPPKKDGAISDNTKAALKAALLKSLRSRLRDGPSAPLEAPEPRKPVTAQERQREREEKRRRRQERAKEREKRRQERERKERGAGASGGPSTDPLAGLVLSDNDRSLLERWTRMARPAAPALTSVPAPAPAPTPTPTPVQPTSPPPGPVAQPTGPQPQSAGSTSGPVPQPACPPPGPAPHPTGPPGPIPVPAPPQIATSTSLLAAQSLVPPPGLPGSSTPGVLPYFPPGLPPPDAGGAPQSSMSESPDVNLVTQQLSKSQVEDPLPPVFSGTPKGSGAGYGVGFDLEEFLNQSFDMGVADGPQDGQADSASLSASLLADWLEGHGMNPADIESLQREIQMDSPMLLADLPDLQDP
For G386D, the “effect of a mutation on the interaction” value was “with no effect”.

Variants of: B1
Details: with mcl1_human MCL1, Q07820
mcl1_human MCL1, Q07820, sequence (Q07820 whole entry): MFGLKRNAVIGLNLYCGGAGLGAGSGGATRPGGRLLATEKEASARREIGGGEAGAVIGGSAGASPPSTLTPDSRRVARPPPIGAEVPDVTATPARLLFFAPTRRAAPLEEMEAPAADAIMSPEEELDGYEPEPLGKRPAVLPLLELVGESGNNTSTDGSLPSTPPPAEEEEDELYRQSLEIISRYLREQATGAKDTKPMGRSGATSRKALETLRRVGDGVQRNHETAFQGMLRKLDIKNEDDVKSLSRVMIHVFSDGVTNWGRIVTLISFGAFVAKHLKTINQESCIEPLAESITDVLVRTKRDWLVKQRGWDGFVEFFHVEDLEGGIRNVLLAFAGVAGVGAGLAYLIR
In the case of G386D, the “effect of a mutation on the interaction” value is reported as “with no effect”.

Variants of: B1
Details: with mitf_human MITF
With G386D the “effect of a mutation on the interaction” value was “with no effect”.

Variants of: B1
Details: with mtor_human MTOR
With G386D the “effect of a mutation on the interaction” value was “with no effect”.

Variants of: B1
Details: with myc_human MYC
In the case of G386D, the “effect of a mutation on the interaction” value is reported as “with no effect”.

Variants of: B1
Details: with nf1_human NF1, P21359
With G386D the “effect of a mutation on the interaction” value was “with no effect”.

Variants of: B1
Details: with merl_human NF2, P35240
With G386D the “effect of a mutation on the interaction” value was “with no effect”.

Variants of: B1
Details: with nfic_human NFIC
With G386D the “effect of a mutation on the interaction” value was “with no effect”.

Variants of: B1
Details: with ikba_human NFKBIA
For G386D, the “effect of a mutation on the interaction” value was “with no effect”.

Variants of: B1
Details: with notc2_human NOTCH2, Q04721
For G386D, the “effect of a mutation on the interaction” value was “with no effect”.

Variants of: B1
Details: with nox1_human NOX1, Q9Y5S8
For G386D, the “effect of a mutation on the interaction” value was “with no effect”.

Variants of: B1
Details: with ntrk2_human NTRK2, Q16620
For G386D, the “effect of a mutation on the interaction” value was “with no effect”.

Variants of: B1
Details: with pak3_human PAK3, O75914
pak3_human PAK3, O75914, sequence (O75914 whole entry, looked up): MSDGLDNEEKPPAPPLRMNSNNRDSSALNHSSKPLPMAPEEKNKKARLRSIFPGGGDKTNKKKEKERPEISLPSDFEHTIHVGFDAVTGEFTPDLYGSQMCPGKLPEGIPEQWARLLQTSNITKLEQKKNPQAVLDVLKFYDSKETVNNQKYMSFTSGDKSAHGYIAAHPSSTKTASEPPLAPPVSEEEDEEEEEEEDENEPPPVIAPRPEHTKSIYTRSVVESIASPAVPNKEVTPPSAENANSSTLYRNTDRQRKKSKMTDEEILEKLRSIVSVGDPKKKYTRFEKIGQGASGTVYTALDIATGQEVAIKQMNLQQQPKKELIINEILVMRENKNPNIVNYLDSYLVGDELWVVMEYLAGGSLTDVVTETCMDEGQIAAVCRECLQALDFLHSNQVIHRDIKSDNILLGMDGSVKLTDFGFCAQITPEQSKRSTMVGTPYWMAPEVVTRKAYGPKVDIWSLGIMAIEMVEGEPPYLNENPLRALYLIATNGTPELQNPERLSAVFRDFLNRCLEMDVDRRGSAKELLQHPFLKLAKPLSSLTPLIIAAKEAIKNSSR
In the case of G386D, the “effect of a mutation on the interaction” value is reported as “with no effect”.

Variants of: B1
Details: with prkn_human PRKN
In the case of G386D, the “effect of a mutation on the interaction” value is reported as “with no effect”.

Variants of: B1
Details: with pax5_human PAX5, Q02548
G386D was tested, and the “effect of a mutation on the interaction” value was “with no effect”.

Variants of: B1
Details: with pax9_human PAX9, P55771
G386D was tested, and the “effect of a mutation on the interaction” value was “with no effect”.

Variants of: B1
Details: with pb1_human PBRM1, Q86U86
In the case of G386D, the “effect of a mutation on the interaction” value is reported as “with no effect”.

Variants of: B1
Details: with pcbp1_human PCBP1, Q15365
G386D was tested, and the “effect of a mutation on the interaction” value was “with no effect”.

Variants of: B1
Details: with pgfra_human PDGFRA
G386D was tested, and the “effect of a mutation on the interaction” value was “with no effect”.

Variants of: B1
Details: with pgfrb_human PDGFRB
For G386D, the “effect of a mutation on the interaction” value was “with no effect”.

Variants of: B1
Details: with pdk1_human PDK1, Q15118
G386D was tested, and the “effect of a mutation on the interaction” value was “with no effect”.

Variants of: B1
Details: with PIK3C2B
With G386D the “effect of a mutation on the interaction” value was “with no effect”.

Variants of: B1
Details: with pk3c3_human PIK3C3, Q8NEB9
pk3c3_human PIK3C3, Q8NEB9, sequence (Q8NEB9 whole entry): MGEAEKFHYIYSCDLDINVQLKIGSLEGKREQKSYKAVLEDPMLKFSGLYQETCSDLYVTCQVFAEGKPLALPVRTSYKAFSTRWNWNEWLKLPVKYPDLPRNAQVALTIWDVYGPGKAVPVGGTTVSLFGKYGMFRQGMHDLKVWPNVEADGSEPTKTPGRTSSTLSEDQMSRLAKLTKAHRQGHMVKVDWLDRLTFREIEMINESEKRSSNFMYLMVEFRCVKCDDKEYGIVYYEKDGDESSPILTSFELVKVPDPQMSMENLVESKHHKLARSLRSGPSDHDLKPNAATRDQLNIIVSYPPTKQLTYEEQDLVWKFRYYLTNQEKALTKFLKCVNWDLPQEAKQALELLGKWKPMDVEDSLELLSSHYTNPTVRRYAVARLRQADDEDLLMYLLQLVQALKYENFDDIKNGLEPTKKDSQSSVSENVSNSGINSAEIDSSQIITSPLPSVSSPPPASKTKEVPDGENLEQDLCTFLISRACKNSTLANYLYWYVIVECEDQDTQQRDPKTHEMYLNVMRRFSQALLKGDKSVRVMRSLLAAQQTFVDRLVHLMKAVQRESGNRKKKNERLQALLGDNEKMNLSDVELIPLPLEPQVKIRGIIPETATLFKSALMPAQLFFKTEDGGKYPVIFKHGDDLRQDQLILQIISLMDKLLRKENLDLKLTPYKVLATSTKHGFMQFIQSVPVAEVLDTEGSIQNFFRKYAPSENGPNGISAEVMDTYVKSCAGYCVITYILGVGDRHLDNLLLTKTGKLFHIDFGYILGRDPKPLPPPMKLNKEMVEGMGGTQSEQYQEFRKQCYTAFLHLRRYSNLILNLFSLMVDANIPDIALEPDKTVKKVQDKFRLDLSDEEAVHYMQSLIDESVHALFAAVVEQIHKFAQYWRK
G386D was tested, and the “effect of a mutation on the interaction” value was “with no effect”.

Variants of: B1
Details: with pk3ca_human PIK3CA
For G386D, the “effect of a mutation on the interaction” value was “with no effect”.

Variants of: B1
Details: with pk3cb_human PIK3CB
With G386D the “effect of a mutation on the interaction” value was “with no effect”.

Variants of: B1
Details: with pk3cg_human PIK3CG
With G386D the “effect of a mutation on the interaction” value was “with no effect”.

Variants of: B1
Details: with p85a_human PIK3R1, P27986
p85a_human PIK3R1, P27986, sequence (P27986 whole entry): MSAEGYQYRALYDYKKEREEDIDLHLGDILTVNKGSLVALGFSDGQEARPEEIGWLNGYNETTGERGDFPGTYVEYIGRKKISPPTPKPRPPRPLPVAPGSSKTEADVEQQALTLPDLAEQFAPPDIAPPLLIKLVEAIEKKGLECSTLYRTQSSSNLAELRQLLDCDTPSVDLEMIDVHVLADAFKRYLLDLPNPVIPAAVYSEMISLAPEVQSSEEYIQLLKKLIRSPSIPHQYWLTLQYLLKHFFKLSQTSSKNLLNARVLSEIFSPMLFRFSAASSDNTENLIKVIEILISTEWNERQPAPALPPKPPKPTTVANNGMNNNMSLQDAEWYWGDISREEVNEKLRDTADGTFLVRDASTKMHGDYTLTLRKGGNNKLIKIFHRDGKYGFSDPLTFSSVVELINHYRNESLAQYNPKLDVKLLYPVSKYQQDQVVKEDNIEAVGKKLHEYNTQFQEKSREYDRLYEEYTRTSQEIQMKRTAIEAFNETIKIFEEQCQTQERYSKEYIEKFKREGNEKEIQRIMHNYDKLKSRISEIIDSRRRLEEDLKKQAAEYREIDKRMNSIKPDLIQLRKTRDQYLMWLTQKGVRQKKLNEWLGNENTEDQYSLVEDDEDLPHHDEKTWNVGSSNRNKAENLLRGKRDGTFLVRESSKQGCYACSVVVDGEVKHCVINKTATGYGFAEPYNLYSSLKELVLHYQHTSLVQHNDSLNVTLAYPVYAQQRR
With G386D the “effect of a mutation on the interaction” value was “with no effect”.
